“Also recorded” adds a separate entry of the source.
Columns and labels:
TrioGEFD2 = TrioGEFD2 (Homo sapiens, UniProt O75962); assay: Co-immunoprecipitation of HA-TrioGEFD2 with GFP-TRIPα in COS cells; assay type: binding; set-up: using recombinant GST-TrioGEFD2 (a.a. 1848-2298), TrioDH2 (a.a. 1848-2096); made in house; conditions: anti-GFP IP, anti-HA western blot
From the text: HA-TrioGEFD2 was co-expressed with either GFP-TRIPα (right column) or GFP alone (left column). The upper panel represents the immunoprecipitation (IP) with the anti-GFP antibody (α-GEP), followed by a western-blot (WB) using the anti-HA antibody (α-HA) and the two lower panels represent the expression of the proteins in the cell lysates.
The Inventors next wanted to determine the effect of TRIPα on GEFD2-mediated RhoA activation in intact cells. First, it was checked whether TRIPα could bind to TrioGEFD2 in mammalian cells. For that purpose, vectors expressing the variable region of TRIAPα (TRIPα) fused to GFP in the pEGFP-C3 plasmid (Clontech) were designed. GFP or GFP-TRIPα were co-expressed with pMTHA-TroGEFD2 by transfection of COS cells using Lipofectamine Plus (Life Technologies) according to the manufacturer's protocol. Immunoprecipitation of GFP-tagged constructs from COS cell lysates were done with the polyclonal rabbit anti-GFP antibody (Torrey Pines Biolabs, Inc.).

TrioDH2 (a.a. 1848-2096) = target: T1, TrioDH2 (a.a. 1848-2096) (Homo sapiens, UniProt O75962); assay: Binding specificity of aptamers in yeast; conditions: growth on selective medium
T1 construct: TrioDH2 (a.a. 1848-2096); expressed in transfected cells; host or cells: yeast
From the text: Trx represents the thioredoxin protein with no inserted peptide.
In order to identify specific inhibitors of TrioGEFD2, a recently developed strategy was used, this strategy being derived from the yeast two hybrid system, where the cDNA library of preys has been replaced by a combinatorial library of short peptides (20 amino acids) in fusion with the bacterial protein thioredoxin A (Colas et al., 1996). This strategy has been successfully used to isolate specific inhibitors of the cyclin-dependent kinases (Cdks), the cell cycle transcription factor E2F, or the viral HPV16 E6 oncoprotein and HBEV core protein (Colas et al., 1996; Butz et al., 2001; Fabrizzio et al., 1999; Geyer et al., 2000). The TrioGEFD2 bait was constructed as follows: plasmid pMTHATrio1848-2298 (Bellanger et al., 1998) was digested with EcoRI/XhoI and the insert cloned in pEG202EcoRI/XhoI to generate the bait pEG202TroGEFD2. Yeast strain EGY048 (Colas et al., 1996) was transformed with pEG202TrioGEFD2 and subsequently with the library of Thioredoxin constrained aptamers according to standard procedures (Ito et al., 1983). After transformation, cells were allowed to recover for 4 hours in galactose containing medium before plating on selective galactose medium. Of the 2×10^6 screened colonies, those growing in the selective medium were recovered and retested for interaction. […]

TrioDH2PH2L2051E = target: T2, TrioDH2PH2L2051E (Homo sapiens, UniProt O75962, L2110E); assay: Binding specificity of aptamers in yeast; set-up: key: +++^1 and +^1 represent respectively a full and a partial (see FIG. 1) binding capacity; +++^1 and +^1 represent respectively a full and a partial (see FIG. 1) binding capacity; −−^1 represents a lack of binding; conditions: RhoGEF TrioDH2PH2L2051E
T2 construct: TrioGEFD2 (DH2PH2, amino acids 1848-2298); expressed in transfected cells; host or cells: yeast

| Binding in yeast (TrioDH2PH2L2051E) | Molecule | Interaction with TrioGEFD2 in mammalian cells (TrioGEFD2) | Binding to the DH2 catalytic domain in yeast (TrioDH2 (a.a. 1848-2096)) |
| --- | --- | --- | --- |
|  | AREGADGAICGYNLATLVMLGPSERVFCPLCEPCSSDIYELM [TRIPα, 42-amino acid peptide corresponding to the variable region of TRIAPα] | interacts with TrioGEFD2 in mammalian cells |  |
| +++^1 | TRIAPα: aptamer of 154 amino acids: variable region of 42 amino acids inserted into the thioredoxin protein; tested as GST fusion (protein) MSDKIIHLTDDSFDTDVLKADGAILVDFWAEWCGPAREGADGAICGYNLATLVMLGPSERVFCPLCEPCSSDIYELMGPCKMIAPILDEIADEYQGKLTVAKLNIDQNPGTAPKYGIRGIPTLLLFKNGEVASATKVGALSKGQLKEFLDANLA |  | also binds to the DH2 catalytic domain; also recorded: interacted with the DH2 catalytic domain alone |
